These results are taken from the supplement of paper PMC9233669.

Fewer inactive variants are shown than the library holds.

The test system of one data set is biotinyl-Val-oxazolone. Description: self-aminoacylation, catalytic enhancement (BVO) (fold over background); higher = more active; k-Seq, kA / k0A0; sequences stand for … in GGGAAUGGAUCCACAUCUACGAAUUC…UUCACUGCAGACUUGACGAAGCUG
Put shortly:
(§1)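 Catalytic enhancement equals the median kA over the uncatalyzed rate, the latter read from the low-activity peak of a bimodal Gaussian fit. Values of kA came from fitting each sequence's fraction reacted to a pseudo-first-order model, with 1000 bootstraps. Reacted RNA was captured with streptavidin and quantified by triplicate qPCR and Illumina sequencing after 90 minutes at room temperature with 2–1250 μM biotinyl-aminoacyl-oxazolone and 0.43 μM mutagenized RNA pools bearing a 21-nt variable region.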

Another data set concerns biotinyl-Ile-oxazolone. Description: self-aminoacylation, catalytic enhancement (BIO) (fold over background); higher = more active; k-Seq, kA / k0A0; sequences stand for … in GGGAAUGGAUCCACAUCUACGAAUUC…UUCACUGCAGACUUGACGAAGCUG
Put shortly: as §1

A further data set deals with biotinyl-Met-oxazolone. The experiment in a line: self-aminoacylation, catalytic enhancement (BMO) (fold over background); higher = more active; k-Seq, kA / k0A0; sequences stand for … in GGGAAUGGAUCCACAUCUACGAAUUC…UUCACUGCAGACUUGACGAAGCUG
A digest of the protocol:
as §1

The next data set concerns biotinyl-Phe-oxazolone. Description: self-aminoacylation, catalytic enhancement (BFO) (fold over background); higher = more active; k-Seq, kA / k0A0; sequences stand for … in GGGAAUGGAUCCACAUCUACGAAUUC…UUCACUGCAGACUUGACGAAGCUG
A digest of the protocol: as §1

In a further data set the test system is biotinyl-Trp-oxazolone. The experiment in a line: self-aminoacylation, catalytic enhancement (BWO) (fold over background); higher = more active; k-Seq, kA / k0A0; sequences stand for … in GGGAAUGGAUCCACAUCUACGAAUUC…UUCACUGCAGACUUGACGAAGCUG
Put shortly: as §1

A further data set concerns biotinyl-Leu-oxazolone. Description: self-aminoacylation, catalytic enhancement (BLO) (fold over background); higher = more active; k-Seq, kA / k0A0; sequences stand for … in GGGAAUGGAUCCACAUCUACGAAUUC…UUCACUGCAGACUUGACGAAGCUG
A digest of the protocol:
as §1

With “AUUACGCUGGUCAUCGAGUGA [Fam2.1 aminoacylation ribozyme variant]”, the self-aminoacylation stood at 3.23 in the data set on biotinyl-Val-oxazolone; 3.16 with biotinyl-Ile-oxazolone; 4.57 in the data set with biotinyl-Met-oxazolone; 16.1 in the data set with biotinyl-Phe-oxazolone; 5.76 in the data set with biotinyl-Trp-oxazolone; 4.69 in the data set on biotinyl-Leu-oxazolone.
For “AUUACGCUGGUCAUCGUGUGA [Fam2.1 aminoacylation ribozyme variant]”, the self-aminoacylation in the data set on biotinyl-Val-oxazolone stood at 1.6; in the data set on biotinyl-Ile-oxazolone it was 1.62; in the data set with biotinyl-Met-oxazolone, 2.48; in the data set on biotinyl-Phe-oxazolone, 15.4; in the data set with biotinyl-Trp-oxazolone, 3; with biotinyl-Leu-oxazolone it was 2.59.
As to “AUUACGCUGGUCAUGGAGUGA [Fam2.1 aminoacylation ribozyme variant]”, the self-aminoacylation in the data set on biotinyl-Val-oxazolone amounted to 2.39; in the data set on biotinyl-Ile-oxazolone, 2.29; in the data set on biotinyl-Met-oxazolone, 2.67; in the data set with biotinyl-Phe-oxazolone, 5.28; with biotinyl-Trp-oxazolone, 3.44; in the data set with biotinyl-Leu-oxazolone, 2.76.
As to “AUUACGCUGGUCAUUGAGUGA [Fam2.1 aminoacylation ribozyme variant]”, the self-aminoacylation in the data set with biotinyl-Val-oxazolone is 3; in the data set with biotinyl-Ile-oxazolone, 3.29; with biotinyl-Met-oxazolone, 5.32; with biotinyl-Phe-oxazolone, 21.2; in the data set with biotinyl-Trp-oxazolone it was 6.92; with biotinyl-Leu-oxazolone, 5.87.
Regarding “AUUACGCUGGUCCUCGAGUGA [Fam2.1 aminoacylation ribozyme variant]”, the self-aminoacylation with biotinyl-Val-oxazolone was 4.14; with biotinyl-Ile-oxazolone, 4.15; with biotinyl-Met-oxazolone it was 6.22; in the data set with biotinyl-Phe-oxazolone, 44.8; with biotinyl-Trp-oxazolone, 6.54; with biotinyl-Leu-oxazolone it was 6.05.
For “AUUACGCUGGUCUUCGAGUGA [Fam2.1 aminoacylation ribozyme variant]”, the self-aminoacylation in the data set with biotinyl-Val-oxazolone is 3.32; in the data set on biotinyl-Ile-oxazolone, 3.35; in the data set on biotinyl-Met-oxazolone it was 4.27; in the data set on biotinyl-Phe-oxazolone, 12.9; in the data set on biotinyl-Trp-oxazolone, 5.95; in the data set with biotinyl-Leu-oxazolone, 5.46.
For the sequence “AUUACGCUGGUGAUCGAGUGA [Fam2.1 aminoacylation ribozyme variant]”, the self-aminoacylation is 2.59 in the data set on biotinyl-Val-oxazolone; 2.89 in the data set on biotinyl-Ile-oxazolone; 4.44 with biotinyl-Met-oxazolone; 25.3 in the data set on biotinyl-Phe-oxazolone; 5.45 in the data set with biotinyl-Trp-oxazolone; 5.37 in the data set with biotinyl-Leu-oxazolone.
As to “AUUACGGUGGUCAUCGAGUGA [Fam2.1 aminoacylation ribozyme variant]”, the self-aminoacylation in the data set on biotinyl-Val-oxazolone turned out to be 2.09; in the data set on biotinyl-Ile-oxazolone, 2.44; with biotinyl-Met-oxazolone, 2.68; with biotinyl-Phe-oxazolone, 5.75; in the data set on biotinyl-Trp-oxazolone, 3.24; in the data set on biotinyl-Leu-oxazolone it was 2.56.
As to “AUUACUAUGGUCAUCGAGUGA [Fam2.1 aminoacylation ribozyme variant]”, the self-aminoacylation in the data set on biotinyl-Val-oxazolone amounted to 3.31; with biotinyl-Ile-oxazolone, 3.32; in the data set on biotinyl-Met-oxazolone, 6.37; with biotinyl-Phe-oxazolone, 22.6; in the data set with biotinyl-Trp-oxazolone, 8.33; with biotinyl-Leu-oxazolone it was 6.66.
Turning to “AUUACUCGGGUCAUCGAGUGA [Fam2.1 aminoacylation ribozyme variant]”, the self-aminoacylation with biotinyl-Val-oxazolone was 3.33; in the data set on biotinyl-Ile-oxazolone it was 3.66; in the data set with biotinyl-Met-oxazolone, 6.51; in the data set with biotinyl-Phe-oxazolone it was 28.6; with biotinyl-Trp-oxazolone, 6.64; in the data set on biotinyl-Leu-oxazolone, 8.09.
For the sequence “AUUACUCUCGUCAUCGAGUGA [Fam2.1 aminoacylation ribozyme variant]”, the self-aminoacylation stood at 2.09 with biotinyl-Val-oxazolone; 2.11 in the data set with biotinyl-Ile-oxazolone; 2.92 in the data set on biotinyl-Met-oxazolone; 8.87 with biotinyl-Phe-oxazolone; 4.11 with biotinyl-Trp-oxazolone; 3.39 with biotinyl-Leu-oxazolone.
As for “AUUACUCUGGUCAUCGAAUGA [Fam2.1 aminoacylation ribozyme variant]”, the self-aminoacylation in the data set on biotinyl-Val-oxazolone came out at 1.09; with biotinyl-Ile-oxazolone, 1.19; with biotinyl-Met-oxazolone it was 1.45; with biotinyl-Phe-oxazolone, 0.918; with biotinyl-Trp-oxazolone, 0.832; with biotinyl-Leu-oxazolone, 1.3.
With “AUUACUCUGGUCAUCGAGUGC [Fam2.1 aminoacylation ribozyme variant]”, the self-aminoacylation was 1.05 in the data set with biotinyl-Val-oxazolone; 1.1 in the data set with biotinyl-Ile-oxazolone; 1.19 in the data set on biotinyl-Met-oxazolone; 0.969 in the data set with biotinyl-Phe-oxazolone; 1.32 in the data set on biotinyl-Trp-oxazolone; 1.42 in the data set with biotinyl-Leu-oxazolone.
As to “AUUACUCUGGUCAUCGCGUGA [Fam2.1 aminoacylation ribozyme variant]”, the self-aminoacylation with biotinyl-Val-oxazolone stood at 8.12; with biotinyl-Ile-oxazolone, 8.13; in the data set on biotinyl-Met-oxazolone, 16.4; in the data set on biotinyl-Phe-oxazolone it was 117; with biotinyl-Trp-oxazolone it was 18.3; with biotinyl-Leu-oxazolone, 17.7.
Take “AUUACUCUGGUUAUCGAGUGA [Fam2.1 aminoacylation ribozyme variant]”: the self-aminoacylation in the data set on biotinyl-Val-oxazolone was 4.2; in the data set on biotinyl-Ile-oxazolone, 4.17; in the data set on biotinyl-Met-oxazolone, 8.17; in the data set with biotinyl-Phe-oxazolone it was 51.3; with biotinyl-Trp-oxazolone, 10.5; with biotinyl-Leu-oxazolone, 8.76.
In the case of “AUUAGCAUGGUCAUCGAGUGA [Fam2.1 aminoacylation ribozyme variant]”, the self-aminoacylation in the data set on biotinyl-Val-oxazolone was 2.64; in the data set on biotinyl-Ile-oxazolone it was 2.87; in the data set on biotinyl-Met-oxazolone, 3.11; in the data set on biotinyl-Phe-oxazolone it was 3.31; with biotinyl-Trp-oxazolone it was 3.81; in the data set on biotinyl-Leu-oxazolone, 3.39.
As for “AUUAGCCCGGUCAUCGAGUGA [Fam2.1 aminoacylation ribozyme variant]”, the self-aminoacylation in the data set with biotinyl-Val-oxazolone came out at 3.57; in the data set on biotinyl-Ile-oxazolone, 3.45; in the data set on biotinyl-Met-oxazolone, 6.23; with biotinyl-Phe-oxazolone, 55.9; in the data set on biotinyl-Trp-oxazolone, 7.74; in the data set on biotinyl-Leu-oxazolone it was 6.64.
On to “AUUAGCCUAGGUCAUCGGGUG [Fam2.2 aminoacylation ribozyme variant]”, for which the self-aminoacylation in the data set with biotinyl-Val-oxazolone turned out to be 15.8; with biotinyl-Ile-oxazolone, 19; in the data set with biotinyl-Met-oxazolone, 30.9; in the data set on biotinyl-Phe-oxazolone, 219; in the data set on biotinyl-Trp-oxazolone, 23.3; with biotinyl-Leu-oxazolone it was 41.9.
For “AUUAGCCUGGUAAUCGAGUGA [Fam2.1 aminoacylation ribozyme variant]”, the self-aminoacylation in the data set with biotinyl-Val-oxazolone came to 5.07; in the data set on biotinyl-Ile-oxazolone, 5.28; in the data set on biotinyl-Met-oxazolone, 11.6; in the data set with biotinyl-Phe-oxazolone, 75.9; in the data set on biotinyl-Trp-oxazolone it was 12.8; with biotinyl-Leu-oxazolone, 13.3.
On to “AUUAGCCUGGUCAACGAGUGA [Fam2.1 aminoacylation ribozyme variant]”, for which the self-aminoacylation in the data set on biotinyl-Val-oxazolone is 3.45; in the data set with biotinyl-Ile-oxazolone it was 3.71; with biotinyl-Met-oxazolone, 5.21; in the data set on biotinyl-Phe-oxazolone, 18.2; in the data set with biotinyl-Trp-oxazolone, 6.82; with biotinyl-Leu-oxazolone, 5.61.
On to “AUUAGCCUGGUCACCGAGUGA [Fam2.1 aminoacylation ribozyme variant]”, for which the self-aminoacylation with biotinyl-Val-oxazolone is 4.65; in the data set with biotinyl-Ile-oxazolone, 4.14; in the data set with biotinyl-Met-oxazolone it was 8.98; in the data set on biotinyl-Phe-oxazolone it was 58.3; in the data set on biotinyl-Trp-oxazolone, 11.4; in the data set with biotinyl-Leu-oxazolone, 11.5.
For the sequence “AUUAGCCUGGUCAUCCAGUGA [Fam2.1 aminoacylation ribozyme variant]”, the self-aminoacylation was 2.62 with biotinyl-Val-oxazolone; 2.69 in the data set on biotinyl-Ile-oxazolone; 4.07 with biotinyl-Met-oxazolone; 10.8 with biotinyl-Phe-oxazolone; 5.21 in the data set with biotinyl-Trp-oxazolone; 4.36 with biotinyl-Leu-oxazolone.
As to “AUUAGCCUGGUCAUCGAAUGA [Fam2.1 aminoacylation ribozyme variant]”, the self-aminoacylation with biotinyl-Val-oxazolone stood at 1.39; with biotinyl-Ile-oxazolone it was 1.36; in the data set with biotinyl-Met-oxazolone, 1.43; with biotinyl-Phe-oxazolone, 1.23; with biotinyl-Trp-oxazolone, 1.27; in the data set with biotinyl-Leu-oxazolone, 1.48.
Turning to “AUUAGCCUGGUCAUCGACUGA [Fam2.1 aminoacylation ribozyme variant]”, the self-aminoacylation stood at 1.04 in the data set with biotinyl-Val-oxazolone; 1.22 with biotinyl-Ile-oxazolone; 1.21 in the data set on biotinyl-Met-oxazolone; 1.59 in the data set on biotinyl-Phe-oxazolone; 0.565 in the data set on biotinyl-Trp-oxazolone; 1.13 with biotinyl-Leu-oxazolone.
As to “AUUAGCCUGGUCAUCGAGAGA [Fam2.1 aminoacylation ribozyme variant]”, the self-aminoacylation worked out at 1.25 in the data set on biotinyl-Val-oxazolone; 1.63 with biotinyl-Ile-oxazolone; 1.08 in the data set with biotinyl-Met-oxazolone; 1.49 in the data set with biotinyl-Phe-oxazolone; 1.35 with biotinyl-Trp-oxazolone; 1.43 in the data set on biotinyl-Leu-oxazolone.
